Data as given in patent US20240228562A1, “NOVEL LIPOCALIN MUTEINS SPECIFIC FOR CONNECTIVE TISSUE GROWTH FACTOR (CTGF)” (PIERIS PHARMACEUTICALS GMBH, priority 2021, published 2024).

T1: Murine CTGF (Mus musculus, UniProt P29268)
T1 construct: purchased Abbexa
T1 sequence (P29268 26-348): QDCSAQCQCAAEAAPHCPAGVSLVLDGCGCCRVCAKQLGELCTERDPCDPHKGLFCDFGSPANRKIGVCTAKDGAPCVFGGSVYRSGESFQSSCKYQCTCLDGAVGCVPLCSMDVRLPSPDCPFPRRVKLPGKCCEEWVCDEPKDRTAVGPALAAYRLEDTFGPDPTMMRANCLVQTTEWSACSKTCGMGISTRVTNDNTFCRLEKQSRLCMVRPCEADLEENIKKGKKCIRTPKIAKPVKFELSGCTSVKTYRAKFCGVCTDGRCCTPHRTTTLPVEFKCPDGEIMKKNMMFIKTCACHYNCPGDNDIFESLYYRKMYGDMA

T2: Rat CTGF (Rattus norvegicus, UniProt Q9R1E9)
T2 construct: purchased R&D Systems
T2 sequence (Q9R1E9 25-347): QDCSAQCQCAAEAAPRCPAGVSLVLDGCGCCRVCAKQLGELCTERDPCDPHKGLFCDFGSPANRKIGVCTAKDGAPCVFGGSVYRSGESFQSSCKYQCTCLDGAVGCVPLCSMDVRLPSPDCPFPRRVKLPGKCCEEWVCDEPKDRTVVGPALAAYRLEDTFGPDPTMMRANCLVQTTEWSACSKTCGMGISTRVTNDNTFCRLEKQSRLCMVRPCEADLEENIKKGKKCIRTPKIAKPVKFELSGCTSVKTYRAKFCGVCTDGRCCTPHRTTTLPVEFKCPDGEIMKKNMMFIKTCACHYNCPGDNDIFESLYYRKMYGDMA

T3: human CTGF (Homo sapiens, UniProt P29279, H83D)
T3 construct: purchased R&D Systems
T3 sequence (P29279 27-349 H83D): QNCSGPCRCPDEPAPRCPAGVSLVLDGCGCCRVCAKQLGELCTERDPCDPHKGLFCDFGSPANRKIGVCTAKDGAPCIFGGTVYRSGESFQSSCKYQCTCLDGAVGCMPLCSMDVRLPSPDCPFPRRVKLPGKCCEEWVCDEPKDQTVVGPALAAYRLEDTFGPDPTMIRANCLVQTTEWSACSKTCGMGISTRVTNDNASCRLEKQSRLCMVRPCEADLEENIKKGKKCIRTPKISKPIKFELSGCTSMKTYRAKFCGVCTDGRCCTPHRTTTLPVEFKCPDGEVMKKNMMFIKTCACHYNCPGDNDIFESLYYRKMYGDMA

B1: SEQ ID NO: 23: optimized CTGF-binding hNGAL lipocalin mutein (protein)
chain: QDSTSDLIPAPPLSKVPLQQNFQDNQFQGKWYVVGVAGNAILRPDKQPAKMFATIYELKEDKSYDVTSVRFEAKSCKYTIKTFVPGSQPGEFTSGQIKSAPGQTSTLVRVVSTNYNQHAMVFFKHVSQNREIFVITLYGRTKELTSELKENFIRFSKSLGLPENHIVFPVPIDQCIDG
modifications: lipocalin mutein
B2: SEQ ID NO: 9: parent CTGF-binding hNGAL lipocalin mutein (protein)
chain: QDSTSDLIPAPPLSKVPLQQNFQDNQFHGKWYVVGLAGNKILRIDKQPAKMFATIYELKEDKSYDVTSVRFEARSCSYTIKTFVPGSQPGEFTAGNIKSAPGQTSTLVRVVSTNYNQHAMVFFKHVSQNRETFVITLYGRTKELTSELKENFIRFSKSLGLPENHIVFPVPIDQCIDG
modifications: lipocalin mutein
B3: SEQ ID NO: 15: optimized CTGF-binding hNGAL lipocalin mutein (protein)
chain: QDSTSDLIPAPPLSKVPLQQNFQDNQFQGKWYVVGLAGNAILREDKQPAKMFATIYELKEDKSYDVTSVRFEAKSCKYTIKTFVPGSQPGEFTAGYIKSAPGQTSTLVRVVSTNYNQHAMVFFKHVTQNREIFVITLYGRTKELTSELKENFIRFSKSLGLPENHIVFPVPIDQCIDG
modifications: lipocalin mutein
B4: SEQ ID NO: 25: parent CTGF-binding hNGAL lipocalin mutein (protein)
chain: QDSTSDLIPAPPLSKVPLQQNFQDNQFHGKWYVVGMAGNFRLREDKDPSKMGATIYELKEDKSYNVTQVQFDDKKCLYVIETFVPGSQPGEFTLGAIKSFPGFTSQLVRVVSTNYNQHAMVFFKKVYQNREVFWITLYGRTKELTSELKENFIRFSKSLGLPENHIVFPVPIDQCIDG
modifications: lipocalin mutein
B5: SEQ ID NO: 29: parent CTGF-binding hNGAL lipocalin mutein (protein)
chain: QDSTSDLIPAPPLSKVPLQQNFQDNQFHGKWYVVGWAGNIKLREDKDPFKMSATIYELKEDKSYNVTEVVFEQKKCHYIIKTFVPGSQPGEFTLGDIKSPPGETSSLVRVVSTNYNQHAMVFFKKVFQNREFFWITLYGRTKELTSELKENFIRFSKSLGLPENHIVFPVPIDQCIDG
modifications: lipocalin mutein
B6: SEQ ID NO: 3: parent CTGF-binding hNGAL lipocalin mutein (protein)
chain: QDSTSDLIPAPPLSKVPLQQNFQDNQFHGKWYVVGRAGNNRLREDKDPPKMWATIYELKEDKSYNVTHVHFMTKKCRYIIDTFVPGSQPGEFTLGAIKSGPGMTSPLVRIVSTNYNQHAMVFFKWVNQNREWFTITLYGRTKELTSELKENFIRFSKSLGLPENHIVFPVPIDQCIDG
modifications: lipocalin mutein
B7: SEQ ID NO: 7: parent CTGF-binding hNGAL lipocalin mutein (protein)
chain: QDSTSDLIPAPPLSKVPLQQNFQDNQFHGKWYVVGLAGNYGLRTDKRPSKMFATIYELKEDKSYDVTSVRFEQERCHYTIRTFVPGSQPGEFTTGSIKSRPGQTSSLVRVVSTNYNQHAMVFFKSVIQNREYFAITLYGRTKELTSELKENFIRFSKSLGLPENHIVFPVPIDQCIDG
modifications: lipocalin mutein

Columns and labels:
Murine CTGF [1] = target: T1, Murine CTGF; experiment: SPR binding kinetics and affinity, murine CTGF; design: key to Murine CTGF kon / Murine CTGF koff / Murine CTGF KD: B binding without determination of kinetics constants; conditions: 25° C., 1:1 binding model
How it was run: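 Targets either amine-coupled to CM5 chip (300–1100 RU; Fc-tagged human, untagged rat/murine) or Fc-captured via anti-human IgG; muteins injected 180 s contact, 900–3600 s dissociation, 30 μL/min, 25° C. Double-referenced sensorgrams fit to 1:1 model giving kon, koff and KD.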

Murine CTGF [2] = target: T4, Murine CTGF (Mus musculus, UniProt P29268); experiment: ELISA binding to full-length murine CTGF (Example 9); conditions: coated 1 μg/ml, muteins from 1000 nM; for EC50: read-out: EC Murine CTGF
T4 construct: Fc (N); purchased Biozol
Procedure: (§1) Binding of muteins to fragments of human and murine CTGF was tested by an ELISA assay. In detail, a 384-well plate suitable for fluorescence measurements (Greiner FLUOTRAC™ 600, black flat bottom, high-binding) was coated with 20 μl of human (R&D Systems, SEQ ID NO 79) and murine CTGF (Biozol, SEQ ID NO: 80) or fragments thereof (Evitria, huCTGF domains 1 and 2 with human Fc tag (SEQ ID NO 77) and muCTGF domains 1 and 2 with human Fc tag (SEQ ID NO 78)) at a concentration of 1 μg/ml in PBS over night at 4° C. After washing with PBS with 0.05% Tween 20, wells were blocked with 100 μl blocking buffer containing 0.1% Tween 20 and 2% BSA (PBS-T/BSA) for 1 h at room temperature. 20 μl of serially diluted muteins starting at 1000 nM were incubated in PBS-T/BSA for 1 h at room temperature.
(§2) The residual supernatants were discarded and 20 μl HRP-labeled anti-Strep-Tag antibody was added at a predetermined optimal concentration in PBS-T/BSA and incubated for 1 h at RT. After washing, 20 μl fluorogenic HRP substrate (QuantaBlu, Thermo) was added to each well, and the reaction was allowed to proceed for 5 to 25 minutes. The fluorescence intensity of every well on the plate was read using a fluorescence microplate reader (Tecan). Curve fitting was performed using GraphPad Prism 7 software.
T4 sequence (P29268 with tags, fused parts or gaps): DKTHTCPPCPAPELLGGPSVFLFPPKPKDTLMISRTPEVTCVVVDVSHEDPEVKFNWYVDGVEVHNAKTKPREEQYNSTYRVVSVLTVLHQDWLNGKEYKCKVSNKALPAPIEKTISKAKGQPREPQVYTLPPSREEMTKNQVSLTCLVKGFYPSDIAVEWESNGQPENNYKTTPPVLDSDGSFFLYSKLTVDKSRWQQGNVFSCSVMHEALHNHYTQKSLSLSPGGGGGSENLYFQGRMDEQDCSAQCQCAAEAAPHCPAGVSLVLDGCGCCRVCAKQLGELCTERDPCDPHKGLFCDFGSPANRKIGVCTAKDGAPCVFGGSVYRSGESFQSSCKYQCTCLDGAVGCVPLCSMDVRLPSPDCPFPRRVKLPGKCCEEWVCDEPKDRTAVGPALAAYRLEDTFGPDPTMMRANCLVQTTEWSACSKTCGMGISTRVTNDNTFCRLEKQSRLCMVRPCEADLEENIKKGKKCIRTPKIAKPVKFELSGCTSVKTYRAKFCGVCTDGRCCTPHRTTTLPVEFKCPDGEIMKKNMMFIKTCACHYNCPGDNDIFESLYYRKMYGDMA

Rat CTGF = target: T2, Rat CTGF; experiment: ELISA binding to rat CTGF (Example 9); conditions: muteins from 1000 nM; for EC50: read-out: EC Rat CTGF
human CTGF = target: T3, human CTGF; experiment: ELISA binding to full-length human CTGF (Example 9); conditions: coated 1 μg/ml, muteins from 1000 nM, read-out: EC Human CTGF
Procedure: as §1, §2

[3] = target: T5, huCTGF domains 1 and 2 with human Fc tag (Homo sapiens, UniProt P29279); experiment: ELISA binding to CTGF fragments, human CTGF domains 1 and 2; conditions: coated 1 μg/ml, muteins from 1000 nM; for EC50: read-out: EC Human CTGF1-2-huFc
T5 construct: purchased Evitria
Procedure: as §1, §2

[4] = target: T6, muCTGF domains 1 and 2 with human Fc tag (Mus musculus, UniProt P29268); experiment: ELISA binding to CTGF fragments, murine CTGF domains 1 and 2; conditions: coated 1 μg/ml, muteins from 1000 nM; for EC50: read-out: EC Murine CTGF1-2-huFc
T6 construct: purchased Evitria
Procedure: as §1, §2

T6 sequence (P29268 with tags, fused parts or gaps): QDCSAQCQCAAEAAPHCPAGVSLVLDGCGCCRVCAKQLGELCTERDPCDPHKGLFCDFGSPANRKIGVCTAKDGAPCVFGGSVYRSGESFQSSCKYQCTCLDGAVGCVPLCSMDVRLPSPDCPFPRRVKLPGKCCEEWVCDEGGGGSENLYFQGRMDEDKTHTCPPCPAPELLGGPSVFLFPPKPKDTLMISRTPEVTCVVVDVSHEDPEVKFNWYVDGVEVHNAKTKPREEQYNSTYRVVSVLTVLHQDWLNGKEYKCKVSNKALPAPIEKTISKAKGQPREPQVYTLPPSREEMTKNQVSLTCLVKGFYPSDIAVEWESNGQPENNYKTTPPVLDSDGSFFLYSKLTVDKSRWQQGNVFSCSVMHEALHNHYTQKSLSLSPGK
T5 sequence (P29279 with tags, fused parts or gaps): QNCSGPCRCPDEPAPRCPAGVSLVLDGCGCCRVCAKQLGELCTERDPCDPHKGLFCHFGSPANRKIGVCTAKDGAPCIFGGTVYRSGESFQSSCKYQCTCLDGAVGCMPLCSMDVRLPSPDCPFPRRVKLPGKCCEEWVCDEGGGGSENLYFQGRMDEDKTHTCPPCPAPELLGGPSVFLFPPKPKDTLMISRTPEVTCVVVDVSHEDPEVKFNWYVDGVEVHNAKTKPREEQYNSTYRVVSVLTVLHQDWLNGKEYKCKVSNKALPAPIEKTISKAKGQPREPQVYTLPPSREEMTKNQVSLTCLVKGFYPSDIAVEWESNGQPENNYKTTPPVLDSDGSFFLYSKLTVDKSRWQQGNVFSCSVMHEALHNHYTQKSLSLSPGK

| Molecule | Murine CTGF KD (Murine CTGF [1]) | Murine CTGF koff (Murine CTGF [1]) | Murine CTGF kon (Murine CTGF [1]) | EC50 (Murine CTGF [2]) | Kd (Murine CTGF [1]) | EC50 (Rat CTGF) | EC50 (human CTGF) | EC50 [3] | EC50 [4] | EC Murine CTGF (Murine CTGF [2]) | EC Rat CTGF (Rat CTGF) | EC Human CTGF1-2-huFc [3] | EC Murine CTGF1-2-huFc [4] |
| --- | --- | --- | --- | --- | --- | --- | --- | --- | --- | --- | --- | --- | --- |
| B1 | B | B | B |  |  |  |  |  |  |  |  |  |  |
| B2 |  | 0.000832 s⁻¹ | 133000 M⁻¹ s⁻¹ | 11 nM | 6.26 nM | 30 nM | 14 nM | 8 nM | 5.8 nM |  |  |  |  |
| B3 |  | 4.51e-05 s⁻¹ | 129000 M⁻¹ s⁻¹ |  |  |  |  |  |  |  |  |  |  |
| B4 |  |  |  |  |  | 23 nM | 11 nM | 8.8 nM | 14 nM | n.b. |  |  |  |
| B5 |  |  |  |  |  | 20 nM | 11 nM | 8.4 nM | 17 nM | n.b. |  |  |  |
| B6 | B | B | B |  |  |  | 6.9 nM |  |  | n.b. | weak | n.b. | n.b. |
| B7 | B | B | B | 29 nM |  | 41 nM | 34 nM | 17 nM | 14 nM |  |  |  |  |
